The text below walks through data of US20110318377A1.

This test concerns the target Tat/FLAG (wild type HIV-1 Tat with FLAG tag, expressed in cells) (HIV-1). The test is described as follows: cell-based or functional assay.

“endogenous Set9 (in Jurkat A2, HEK293 and HeLa cells) (from UniProt Q8WTS6 1-366)” had a decrease in Tat transactivation of the HIV LTR (luciferase) in HeLa cells after Set9 siRNA of 50 percent.
